Assay results as given in article PMC4166353.

Experiments:
[1] = molecular target: Fluorescence quenched C4 P4-P4' substrate, 2-aminobenzoate-GLQRALEI-Lys(Dinitrophenol)-NH2

| EC50 for cleavage of the C4 alpha chain (C4 1 uM, enzyme 0-5 nM, 1 h, 37 C, SDS-PAGE densitometry) (Complement component C4) [nM] | kcat/K0.5 for cleavage of the fluorescence quenched C4 P4-P4' peptide (400 nM enzyme, 0.5-500 uM substrate, 37 C) [1] [M⁻¹ s⁻¹] | Substance |
| --- | --- | --- |
| 0.16 | 82000 | Recombinant human C1s, wild type, activated (from UniProt P09871 16-688) (enzyme) |
| 0.76 | 95000 | Recombinant human C1s K628Q mutant, activated (from UniProt P09871 16-688) (enzyme) |
| 0.77 | 110000 | Recombinant human C1s K628A mutant, activated (from UniProt P09871 16-688) (enzyme) |
